Literature values, collected in PMC12188480.

Target: c-MET (Homo sapiens) (UniProt P08581)
Sequence (P08581 25-932): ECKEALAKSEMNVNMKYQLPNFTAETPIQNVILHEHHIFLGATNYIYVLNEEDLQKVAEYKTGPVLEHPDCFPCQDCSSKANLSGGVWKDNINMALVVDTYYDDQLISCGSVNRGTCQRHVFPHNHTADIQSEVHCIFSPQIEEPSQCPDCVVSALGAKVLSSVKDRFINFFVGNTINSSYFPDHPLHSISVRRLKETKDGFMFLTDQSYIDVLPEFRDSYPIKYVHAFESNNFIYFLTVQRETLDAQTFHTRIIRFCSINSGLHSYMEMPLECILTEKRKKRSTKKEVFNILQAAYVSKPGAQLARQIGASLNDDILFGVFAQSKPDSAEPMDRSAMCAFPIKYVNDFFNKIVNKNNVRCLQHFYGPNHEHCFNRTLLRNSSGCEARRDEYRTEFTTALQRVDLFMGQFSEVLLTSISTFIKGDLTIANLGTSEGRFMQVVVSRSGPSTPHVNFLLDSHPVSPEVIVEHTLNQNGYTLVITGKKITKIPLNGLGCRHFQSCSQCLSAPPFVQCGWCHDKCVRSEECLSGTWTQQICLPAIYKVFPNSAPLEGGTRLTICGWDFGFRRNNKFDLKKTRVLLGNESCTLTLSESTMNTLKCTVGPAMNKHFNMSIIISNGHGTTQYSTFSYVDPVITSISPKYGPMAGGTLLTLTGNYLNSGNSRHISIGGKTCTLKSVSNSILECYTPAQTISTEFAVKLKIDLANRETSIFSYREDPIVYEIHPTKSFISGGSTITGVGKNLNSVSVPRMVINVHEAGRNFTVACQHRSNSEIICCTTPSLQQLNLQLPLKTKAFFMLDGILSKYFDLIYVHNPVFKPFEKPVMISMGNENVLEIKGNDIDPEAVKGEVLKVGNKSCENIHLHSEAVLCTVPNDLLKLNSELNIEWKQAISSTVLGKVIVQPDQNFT

Kd: 1.2 nM
Substance: onartuzumab
